Assay [1] concerns the target T1, human LAG3 expressed on cells (human, UniProt P18627 23-525).
T1 construct: whole, on cells
T1 sequence (looked up): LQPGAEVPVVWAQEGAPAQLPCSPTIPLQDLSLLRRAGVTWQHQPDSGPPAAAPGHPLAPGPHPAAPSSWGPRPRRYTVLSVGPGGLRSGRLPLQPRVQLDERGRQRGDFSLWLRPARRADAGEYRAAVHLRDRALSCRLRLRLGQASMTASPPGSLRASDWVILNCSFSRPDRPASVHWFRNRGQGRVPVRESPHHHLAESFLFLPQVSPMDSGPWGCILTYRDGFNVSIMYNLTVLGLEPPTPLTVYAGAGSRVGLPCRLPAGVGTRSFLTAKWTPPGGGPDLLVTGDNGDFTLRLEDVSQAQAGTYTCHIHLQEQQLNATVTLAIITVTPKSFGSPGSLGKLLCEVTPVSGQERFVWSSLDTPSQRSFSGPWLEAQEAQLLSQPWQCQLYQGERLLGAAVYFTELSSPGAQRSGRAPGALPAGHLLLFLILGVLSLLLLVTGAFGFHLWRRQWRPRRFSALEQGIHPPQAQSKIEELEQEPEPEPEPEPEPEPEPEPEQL
The experiment in a line: FACS, 293T-hLAG3 cells. The method, then:
5) The prepared antibody samples were added to the 96-well plate according to the platemap, the cells were resuspended and incubate at 4° C. for 1 hour.
7) 3% BSA/1xPBS was used to dilute Goat polyclonal Secondary Antibody to Human IgG-Fc (DyLight® 650) to the desired concentration (1:200), in which the cells were resuspended and incubated at 4° C. for 1 hour.
9) The cells were resuspended in 200 µl of 3% BSA/1xPBS, and performed flow cytometric testing by Shsti Biotech Inc.
Background: Flow cytometry measures light scatter and fluorescence of single cells or particles in a stream.

Assay [2] addresses T1, human LAG3 expressed on cells. The experiment in a line: cell-based or functional assay.
In assay [3] the target is T2, LAG3 Protein, Human, Recombinant (His Tag) (Sino Biological Catalog No. 16498-H08H) (human, UniProt P18627 23-450).
T2 construct: Bought protein; also called hLAG3-His; LAG3-His; not shown: His tag
T2 sequence (looked up): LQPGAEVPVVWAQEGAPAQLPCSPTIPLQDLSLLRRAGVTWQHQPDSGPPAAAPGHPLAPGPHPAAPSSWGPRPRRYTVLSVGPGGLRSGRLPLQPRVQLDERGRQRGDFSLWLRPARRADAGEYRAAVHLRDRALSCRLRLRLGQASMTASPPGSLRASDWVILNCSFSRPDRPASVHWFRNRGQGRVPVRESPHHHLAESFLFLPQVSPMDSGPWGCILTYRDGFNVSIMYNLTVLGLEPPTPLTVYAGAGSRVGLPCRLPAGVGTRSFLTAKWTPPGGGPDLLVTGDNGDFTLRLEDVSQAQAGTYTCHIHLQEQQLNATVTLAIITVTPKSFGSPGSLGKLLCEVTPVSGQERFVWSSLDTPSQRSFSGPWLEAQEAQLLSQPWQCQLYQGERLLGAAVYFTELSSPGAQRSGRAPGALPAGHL
The experiment in a line: ELISA, coated hLAG3-His. The procedure:
Plates were coated with 100 µL per well of Coating Solution, and then covered, and incubated overnight (12-18 hours) at 2-8° C. The wells were aspirated and washed 1 time with >200 µL of Wash buffer per well, inverted and tapped on absorbent paper to remove excess liquid. The plates were blocked with 200 µL per well with Blocking buffer (1×PBS+4% milk) for 1 hour at room temperature, aspirated, inverted, and tapped on absorbent paper to remove excess liquid. Standards and sample dilutions were prepared in Blocking buffer. 100 µL of standards (in duplicate) and samples were pipetted into designated wells. After incubation for 1 hour at room temperature with gentle continual shaking (~500 rpm), the wells were aspirate and washed 3 times with >200 µL of Wash buffer per well, inverted and tapped on absorbent paper to remove excess liquid.
The primary antibody solution was diluted with Blocking buffer. See Table 14 for recommended primary antibody dilution. 100 µL of the primary antibody solution was added into each well and incubated for 2 hours at room temperature with gentle continual shaking (~500 rpm). The wells were aspirated and washed 3 times with >200 µL of Wash buffer per well, inverted and tapped on absorbent paper to remove excess liquid. The working solution of secondary antibody was made with Blocking buffer by diluting the secondary antibody by 2,500 times. 100 µL of secondary antibody working solution was added into each well and incubated for 30 minutes at room temperature. The wells were aspirated and washed 5 times with >200 µL of Wash buffer per well, inverted and tapped on absorbent paper to remove excess liquid. 100 µL of TMB substrate solution (Biopanda, TMB-S-004) was added to each well and incubated for 30 minutes at room temperature. 100 µL of Stop solution (Solarbio, C1058) was added to each well.
Background: ELISA stands for enzyme-linked immunosorbent assay.

Assay [4] concerns the target T1, human LAG3 expressed on cells. The experiment in a line: cell ELISA, 293T-hLAG3 cells. The method, then:
Each well was treated with stimulants. The cells were then fixed and blocked with Blocking buffer. The Primary antibodies were added. The wells were washed and a HRP-conjugated secondary antibody was added. The wells were washed with 1x PBS and a solution containing TMB (Biopanda, TMB-S-004) was added. The TMB reacted with HRP to change the color thereof from colorless to blue. An acid stop solution (Solarbio, C1058) was then added to stop the reaction and change the blue color to yellow.
Materials are listed below: [0072] […] 2) Blocking buffer: 1×PBS+3% BSA (Sigma, B2064); [0074] […] [0075] 4) Secondary antibody: Goat anti-human IgG1 Fc antibody, HRP (1:2500, invitrogen, A18817). [0076]

B1: sdAb No. 25 (VHH)
VHH: QLQLVESGGGLVQAGGSLRLSCAASGSIESFSFMGWYRQAPGKQRELVAGFTGAASLSFSTYTDAVKGRFTISRDNAKNTVYLQMNSLKPEDTAVYFCNVDPWSQSWPGRYWGQGTQVTVSS
notes: Fc of the tested form not described; also called sdAb 25; sdAb #25; not shown: Fc part implied by anti-human Fc capture and anti-human IgG Fc detection
Regarding B1, in assay [1], the EC50 (commonly the midpoint of the concentration-response curve) came to 1.48 nM, the “FACS signal at 0.061 nM” value came to 99.2, the “FACS signal at 0.1829 nM” value came out at 247 and the “FACS signal at 0.5487 nM” value was 618. Besides, in assay [1], the “FACS signal at 1.6461 nM” value was 1410, the “FACS signal at 4.9383 nM” value was determined as 2000, the “FACS signal at 14.815 nM” value is 2280 and the “FACS signal at 44.445 nM” value stood at 2540. Further, the “FACS signal at 133.335 nM” value in assay [1] amounted to 2580. Besides, in assay [2], the “IL-2, % of BMS, at 0.005080526 ug/mL” value amounted to 3.24%; the “IL-2, % of BMS, at 0.015241579 ug/mL” value is -0.59%; the “IL-2, % of BMS, at 0.045724737 ug/mL” value came to 8.03%; the “IL-2, % of BMS, at 0.137174211 ug/mL” value is 2.39%. Also, in assay [2], the “IL-2, % of BMS, at 0.411522634 ug/mL” value was determined as 9.2%; the “IL-2, % of BMS, at 1.234567901 ug/mL” value turned out to be 25.1%; the “IL-2, % of BMS, at 3.703703704 ug/mL” value was found to be 30.6%; the “IL-2, % of BMS, at 11.11111111 ug/mL” value was determined as 34.1%. In assay [2], the “IL-2, % of BMS, at 33.33333333 ug/mL” value is 39.8% and the “IL-2, % of BMS, at 100 ug/mL” value came out at 53.7%.

B2: sdAb No. 27 (VHH)
VHH: QVQLVESGGGLVQPGGSLRLSCAASGFTLDYYAIGWFRQAPGKEREGVSCIRSSDGSTYYADSVKGRFTISSDNTKNTVYLQMNSLKPEDTAVYYCATDRYSDCRGPYENWGQGTQVTVSS
notes: Fc of the tested form not described; also called sdAb 27; not shown: Fc part implied by anti-human Fc capture and anti-human IgG Fc detection
As to B2, in assay [3], the concentration for a half-maximal effect (EC50) turned out to be 3.14 nM, the “OD450 at 0.004572 ug/ml” value is 0.039, the “OD450 at 0.013717 ug/ml” value was 0.042 and the “OD450 at 0.041152 ug/ml” value was 0.063. In assay [3], the “OD450 at 0.123457 ug/ml” value worked out at 0.331, the “OD450 at 0.37037 ug/ml” value was 1.5, the “OD450 at 1.111111 ug/ml” value is 1.84 and the “OD450 at 3.333333 ug/ml” value amounted to 1.77. In addition, the “OD450 at 10 ug/ml” value in assay [3] amounted to 2.15. For the same molecule, in assay [1], the EC50 came to 1.77 nM, the “FACS signal at 0.061 nM” value is 163, the “FACS signal at 0.1829 nM” value worked out at 393 and the “FACS signal at 0.5487 nM” value was 1010. Also, in assay [1], the “FACS signal at 1.6461 nM” value was determined as 2240, the “FACS signal at 4.9383 nM” value is 3570, the “FACS signal at 14.815 nM” value amounted to 4130 and the “FACS signal at 44.445 nM” value worked out at 4490. Further, in assay [1], the “FACS signal at 133.335 nM” value worked out at 4630. For the same molecule, in assay [2], the “IL-2, % of BMS, at 0.005080526 ug/mL” value worked out at 5.57%; the “IL-2, % of BMS, at 0.015241579 ug/mL” value is 13.4%; the “IL-2, % of BMS, at 0.045724737 ug/mL” value amounted to 12.1%; the “IL-2, % of BMS, at 0.137174211 ug/mL” value amounted to 18%. Also, in assay [2], the “IL-2, % of BMS, at 0.411522634 ug/mL” value turned out to be 27.3%; the “IL-2, % of BMS, at 1.234567901 ug/mL” value was 36.5%; the “IL-2, % of BMS, at 3.703703704 ug/mL” value was 43.4%; the “IL-2, % of BMS, at 11.11111111 ug/mL” value is 50%. In addition, in assay [2], the “IL-2, % of BMS, at 33.33333333 ug/mL” value stood at 52.9% and the “IL-2, % of BMS, at 100 ug/mL” value was 52.8%. Further, in assay [4], a half-maximal effect (EC50) was put at 1.18 nM, the “OD450 at 0.0045725 ug/ml” value is 0.097, the “OD450 at 0.0137174 ug/ml” value was determined as 0.198 and the “OD450 at 0.0411523 ug/ml” value worked out at 0.408. Further, in assay [4], the “OD450 at 0.1234568 ug/ml” value is 0.79, the “OD450 at 0.3703704 ug/ml” value was determined as 1.13, the “OD450 at 1.111111 ug/ml” value stood at 1.28 and the “OD450 at 3.333333 ug/ml” value stood at 1.21. The “OD450 at 10 ug/ml” value in assay [4] came out at 1.26.

B3: sdAb No. 17 (VHH)
VHH: QLQLVESGGGLVQPGGSLRLSCAASGLTLDGYAIGWFRQAPGKEREGLACISGSDGSTHYLDSVKGRFTISRDNGKNTMALQMNSLQFGDTAIYYCAARRGSCSGSWTYWGQGTQVTVSS
notes: Fc of the tested form not described; also called sdAb 17; not shown: Fc part implied by anti-human Fc capture and anti-human IgG1 Fc detection
In the case of B3, the EC50 in assay [3] is 2.17 nM. In addition, in assay [4], the midpoint of the response, the EC50, lay at 0.904 nM; the “OD450 at 0.0045725 ug/ml” value is 0.104; the “OD450 at 0.0137174 ug/ml” value came to 0.259; the “OD450 at 0.0411523 ug/ml” value amounted to 0.543. Besides, in assay [4], the “OD450 at 0.1234568 ug/ml” value was determined as 1.01, the “OD450 at 0.3703704 ug/ml” value is 1.3, the “OD450 at 1.111111 ug/ml” value came out at 1.42 and the “OD450 at 3.333333 ug/ml” value turned out to be 1.44. In addition, in assay [4], the “OD450 at 10 ug/ml” value turned out to be 1.48.

These data come from patent publication US20230303690A1 (published 2023).
